Substrate in data set [1]: O=C(O)CBr
The data set can be described thus: purified protein. It is filed as biochemical, Zobellia galactanivorans. To be noted: 20 °C, 1 mM HEPES, 1 mM EDTA, 20 mM sodium sulfate, 56 μM phenol red, pH 8.2 (initial), 0.3 mg/ml enzyme.

Substrate in data set [2]: O=C(O)CI
The data set can be described thus: purified protein. It is filed as biochemical, Zobellia galactanivorans. To be noted: 20 °C, 1 mM HEPES, 1 mM EDTA, 20 mM sodium sulfate, 56 μM phenol red, pH 8.2 (initial), 0.3 mg/ml enzyme.

As usually defined, the Km is the concentration of substrate that gives half-maximal velocity.

B1: ZgHAD (Zobellia galactanivorans) (protein)
chain: MSAKVKKPELLIFDVNETLLDMGPLENAINESLNSEHAFSLWFRTLLHYSLTETLTGNYVDFGTIGKATLKMTMRKFGKNLSEDRLDAILGNIKKLPAHEDVKEGLKMLKEAQIKLVALSNSNGKLLNAQLQFAGLADYFDAIFSVEAVGRYKPELASYRAVLETMKVPAENTMMVAAHGWDILGAKRAGLRTAFVAREGHAIYPLDGTPELEAKTVLEVARTLLKN
notes: recombinant, pFO4 vector, E. coli BL21 (DE3); homodimer in solution
On to B1, for which the figures for the Km in data set [1] and in data set [2] were 460 µM and 310 µM, respectively.

Source of the values: publication PMC8490876, “Functional Characterization of a L-2-Haloacid Dehalogenase From Zobellia galactanivorans Dsij^T Suggests a Role in Haloacetic Acid Catabolism and a Wide Distribution in Marine Environments” (Frontiers in Microbiology, 2021).
